Assay results taken from PMC2945613 (Molecular cell, 2010).

T1: eIF4G1 (yeast eIF4G, wild type) (S. cerevisiae, UniProt P39935 1-952)
T1 sequence (looked up): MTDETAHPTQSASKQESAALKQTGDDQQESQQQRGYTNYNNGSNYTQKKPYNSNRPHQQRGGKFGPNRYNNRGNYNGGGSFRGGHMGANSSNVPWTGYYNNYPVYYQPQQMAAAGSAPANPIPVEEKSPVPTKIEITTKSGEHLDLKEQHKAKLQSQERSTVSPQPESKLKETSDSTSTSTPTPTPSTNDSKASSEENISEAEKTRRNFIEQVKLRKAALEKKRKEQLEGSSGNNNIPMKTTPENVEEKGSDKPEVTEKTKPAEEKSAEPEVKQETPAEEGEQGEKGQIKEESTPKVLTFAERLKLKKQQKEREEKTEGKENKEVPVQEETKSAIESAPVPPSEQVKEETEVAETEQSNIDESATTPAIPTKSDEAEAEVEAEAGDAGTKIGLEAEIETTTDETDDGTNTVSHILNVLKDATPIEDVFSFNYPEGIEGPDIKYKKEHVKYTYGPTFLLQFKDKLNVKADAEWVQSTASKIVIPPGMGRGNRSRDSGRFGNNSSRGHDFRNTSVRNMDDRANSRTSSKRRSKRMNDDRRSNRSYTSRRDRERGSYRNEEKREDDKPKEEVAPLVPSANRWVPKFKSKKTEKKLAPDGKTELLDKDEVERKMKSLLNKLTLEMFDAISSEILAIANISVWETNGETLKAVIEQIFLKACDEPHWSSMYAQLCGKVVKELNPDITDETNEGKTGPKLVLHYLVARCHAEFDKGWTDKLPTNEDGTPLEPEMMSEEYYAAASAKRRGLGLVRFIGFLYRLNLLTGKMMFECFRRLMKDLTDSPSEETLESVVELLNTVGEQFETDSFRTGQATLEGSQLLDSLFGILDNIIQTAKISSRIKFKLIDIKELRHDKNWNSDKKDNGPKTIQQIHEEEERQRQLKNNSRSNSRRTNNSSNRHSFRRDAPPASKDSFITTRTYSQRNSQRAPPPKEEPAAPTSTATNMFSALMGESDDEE

T2: eIF4E•eIF4G complex (S. cerevisiae, UniProt P07260 1-213; P39935 1-952)
T2 sequence (looked up) 1: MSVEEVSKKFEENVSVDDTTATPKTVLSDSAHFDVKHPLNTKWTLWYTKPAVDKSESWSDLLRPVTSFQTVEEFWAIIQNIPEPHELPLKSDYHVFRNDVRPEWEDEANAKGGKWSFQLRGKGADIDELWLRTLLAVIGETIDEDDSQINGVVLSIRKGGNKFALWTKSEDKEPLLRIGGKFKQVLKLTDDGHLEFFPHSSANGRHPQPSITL
T2 sequence (looked up) 2: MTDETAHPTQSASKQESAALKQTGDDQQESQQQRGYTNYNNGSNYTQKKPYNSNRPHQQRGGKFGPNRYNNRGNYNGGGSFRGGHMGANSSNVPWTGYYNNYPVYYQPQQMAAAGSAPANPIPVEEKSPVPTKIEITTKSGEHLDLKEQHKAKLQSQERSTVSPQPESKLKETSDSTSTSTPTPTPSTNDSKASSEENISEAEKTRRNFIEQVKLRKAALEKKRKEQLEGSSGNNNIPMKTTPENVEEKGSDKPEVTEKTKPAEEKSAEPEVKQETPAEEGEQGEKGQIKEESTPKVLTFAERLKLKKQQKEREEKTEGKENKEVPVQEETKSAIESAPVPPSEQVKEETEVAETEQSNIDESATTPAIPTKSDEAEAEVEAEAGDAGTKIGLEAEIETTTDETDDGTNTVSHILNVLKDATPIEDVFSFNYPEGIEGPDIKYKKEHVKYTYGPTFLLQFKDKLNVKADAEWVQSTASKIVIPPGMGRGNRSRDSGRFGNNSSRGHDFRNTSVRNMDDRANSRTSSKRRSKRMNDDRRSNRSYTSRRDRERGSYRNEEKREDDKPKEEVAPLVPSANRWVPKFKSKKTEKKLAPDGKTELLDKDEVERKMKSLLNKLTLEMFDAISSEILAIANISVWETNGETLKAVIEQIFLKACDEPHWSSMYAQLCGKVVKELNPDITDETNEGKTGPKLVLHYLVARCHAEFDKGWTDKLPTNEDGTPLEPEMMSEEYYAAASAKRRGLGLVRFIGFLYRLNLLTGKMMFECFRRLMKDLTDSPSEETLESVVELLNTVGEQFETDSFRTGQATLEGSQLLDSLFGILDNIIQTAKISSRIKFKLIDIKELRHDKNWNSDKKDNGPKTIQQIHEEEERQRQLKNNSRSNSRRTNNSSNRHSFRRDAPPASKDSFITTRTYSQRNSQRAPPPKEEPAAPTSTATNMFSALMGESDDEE

B1: eIF4E-Fl (yeast eIF4E S200C labelled with fluorescein maleimide) (natural protein, S. cerevisiae, UniProt P07260 1-213, looked up)
chain: MSVEEVSKKFEENVSVDDTTATPKTVLSDSAHFDVKHPLNTKWTLWYTKPAVDKSESWSDLLRPVTSFQTVEEFWAIIQNIPEPHELPLKSDYHVFRNDVRPEWEDEANAKGGKWSFQLRGKGADIDELWLRTLLAVIGETIDEDDSQINGVVLSIRKGGNKFALWTKSEDKEPLLRIGGKFKQVLKLTDDGHLEFFPHCSANGRHPQPSITL
modifications: fluorescein maleimide on the introduced cysteine (S200C)
B2: eIF4A-TAMRA (enzyme, S. cerevisiae, UniProt P10081 1-395, looked up)
chain: MSEGITDIEESQIQTNYDKVVYKFDDMELDENLLRGVFGYGFEEPSAIQQRAIMPIIEGHDVLAQAQSGTGKTGTFSIAALQRIDTSVKAPQALMLAPTRELALQIQKVVMALAFHMDIKVHACIGGTSFVEDAEGLRDAQIVVGTPGRVFDNIQRRRFRTDKIKMFILDEADEMLSSGFKEQIYQIFTLLPPTTQVVLLSATMPNDVLEVTTKFMRNPVRILVKKDELTLEGIKQFYVNVEEEEYKYECLTDLYDSISVTQAVIFCNTRRKVEELTTKLRNDKFTVSAIYSDLPQQERDTIMKEFRSGSSRILISTDLLARGIDVQQVSLVINYDLPANKENYIHRIGRGGRFGRKGVAINFVTNEDVGAMRELEKFYSTQIEELPSDIATLLN
modifications: TAMRA label, attached by expressed protein ligation

Key:
Assay in all cases: fluorescence polarisation
[1] = target: eIF5-TAMRA (S. cerevisiae) (UniProt P38431)
eIF4B-Fl (S. cerevisiae) = eIF4B-Fl (S. cerevisiae) (UniProt P34167)
[2] = target: eIF1-TAMRA (S. cerevisiae) (UniProt P32911)
[3] = target: T1, eIF4G1 (yeast eIF4G, wild type)
eIF4E•eIF4G complex = target: T2, eIF4E•eIF4G complex

Sequence of eIF5-TAMRA (S. cerevisiae) (P38431 whole entry): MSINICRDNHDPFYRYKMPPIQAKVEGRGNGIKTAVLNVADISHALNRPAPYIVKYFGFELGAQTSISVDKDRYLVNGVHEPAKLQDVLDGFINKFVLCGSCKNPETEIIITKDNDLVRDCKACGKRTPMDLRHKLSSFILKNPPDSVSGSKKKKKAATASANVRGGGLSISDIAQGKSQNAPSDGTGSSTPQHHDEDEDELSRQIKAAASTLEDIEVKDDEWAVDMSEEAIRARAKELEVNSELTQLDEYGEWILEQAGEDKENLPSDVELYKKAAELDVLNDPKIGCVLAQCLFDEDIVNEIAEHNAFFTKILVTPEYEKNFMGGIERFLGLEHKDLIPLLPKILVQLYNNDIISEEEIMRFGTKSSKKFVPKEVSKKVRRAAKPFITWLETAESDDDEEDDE
Sequence of eIF1-TAMRA (S. cerevisiae) (P32911 whole entry): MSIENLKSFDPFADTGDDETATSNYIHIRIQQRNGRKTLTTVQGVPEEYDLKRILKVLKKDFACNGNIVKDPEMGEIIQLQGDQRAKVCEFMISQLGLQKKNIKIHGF

Molecule	Kd [1] [nM]	Kd (eIF4B-Fl (S. cerevisiae)) [nM]	Kd [2] [nM]	Kd [3] [nM]	binding result (eIF4E•eIF4G complex)
eIF3 (yeast multisubunit complex)	15	380	115	–	–
B1	–	–	–	< 15	–
B2	–	–	–	200	binds
